Residue numbers refer to the chain shown, from its start.
T1: DDX21(574-783) (Homo sapiens, UniProt Q9NR30 574-783)
T1 sequence: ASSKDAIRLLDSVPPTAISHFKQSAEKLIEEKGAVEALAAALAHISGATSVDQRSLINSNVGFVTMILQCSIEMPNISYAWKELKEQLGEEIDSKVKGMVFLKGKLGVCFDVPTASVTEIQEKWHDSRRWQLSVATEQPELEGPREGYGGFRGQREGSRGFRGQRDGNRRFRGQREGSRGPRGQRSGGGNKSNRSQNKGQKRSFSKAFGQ

T2: DDX21 full length (1-783) (Homo sapiens, UniProt Q9NR30 1-783)
T2 sequence: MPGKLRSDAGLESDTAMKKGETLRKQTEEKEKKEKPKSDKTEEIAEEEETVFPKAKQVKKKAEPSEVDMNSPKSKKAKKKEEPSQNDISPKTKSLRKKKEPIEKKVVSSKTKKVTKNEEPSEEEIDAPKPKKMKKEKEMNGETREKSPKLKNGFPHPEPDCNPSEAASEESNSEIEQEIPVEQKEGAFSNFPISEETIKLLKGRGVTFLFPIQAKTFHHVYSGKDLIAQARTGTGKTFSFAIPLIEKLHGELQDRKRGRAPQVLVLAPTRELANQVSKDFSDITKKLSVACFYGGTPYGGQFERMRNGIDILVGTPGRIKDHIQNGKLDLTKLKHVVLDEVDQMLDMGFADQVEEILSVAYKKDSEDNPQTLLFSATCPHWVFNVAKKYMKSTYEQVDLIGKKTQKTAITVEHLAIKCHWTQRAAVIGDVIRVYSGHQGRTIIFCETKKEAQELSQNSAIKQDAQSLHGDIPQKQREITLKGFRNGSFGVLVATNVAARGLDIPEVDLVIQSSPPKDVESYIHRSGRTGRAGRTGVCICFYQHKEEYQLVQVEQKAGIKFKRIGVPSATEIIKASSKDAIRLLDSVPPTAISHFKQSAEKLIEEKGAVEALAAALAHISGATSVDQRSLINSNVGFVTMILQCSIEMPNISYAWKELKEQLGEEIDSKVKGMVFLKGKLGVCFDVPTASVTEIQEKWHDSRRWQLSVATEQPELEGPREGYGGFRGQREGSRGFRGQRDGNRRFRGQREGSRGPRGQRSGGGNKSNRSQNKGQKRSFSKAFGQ

T3: DDX21 m4 (Homo sapiens, UniProt Q9NR30 1-783, P754Y;R755E;Q757I;R758Q)
T3 sequence: T2 sequence with P754Y, R755E, Q757I, R758Q


Assays:
Experiment in all cases: MST
DDX21(574-783) [1] = target: T1, DDX21(574-783)
[2] = target: T2, DDX21 full length (1-783)
DDX21 m4 = target: T3, DDX21 m4
DDX21(574-783) [3] = target: T1, DDX21(574-783); remark: listed apart in the source

Binder	Kd (DDX21(574-783) [1]) [µM]	Kd [2] [µM]	binding result (DDX21 m4)	binding result [2]	binding signal (DDX21(574-783) [3])
AGGGUGGGCCUGGGAGGGGUGGUGGCCAU (structured_RNA) [hTR(10-43)]	0.149 ± 0.01	0.324 ± 0.007	no binding	–	–
GUUGCGCCGCGCGUUGCGUUUGCGCGCACG (ssRNA) [Q2-mutant]	–	–	no binding	no binding	~1000 fold less affinity than Q2 wild type
GUUGGGGCGGGCGUUGGGUUUGGGGGGACG (structured_RNA) [Q2]	–	0.01 ± 0.0007	–	–	–

Source: PMC5499804
